Reference: the supplement of paper PMC9112550, “Optimization of the antimicrobial peptide Bac7 by deep mutational scanning” (BMC Biology, 2022)

What follows are sequences tested on Escherichia coli TOP10 (assay: shrunken log2 fold change of peptide-encoding DNA abundance (4.5 h post-induction vs induction); higher = less antimicrobial activity (less host growth inhibition)). Conditions: time post-induction: 4.5 h; library: site-saturation at positions 5, 18, 19, 20.
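Further: peptides expressed intracellularly from a pBAD plasmid library in pooled LB shake-flask culture, induced with 0.3% L-arabinose, DNA abundance read by NGS, three biological replicates, DESeq2 with apeglm shrinkage.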

Sequence	shrunken log2 fold change
RRIRYRPPRLPRPRPRPVGFPRP	-0.308
RRIRVRPPRLPRPRPRPMQLPRP	-0.0252
RRIRERPPRLPRPRPRPNDRPRP	-0.426
RRIRQRPPRLPRPRPRPYVAPRP	-0.713
RRIRHRPPRLPRPRPRPRDAPRP	0.14
RRIRDRPPRLPRPRPRPGMWPRP	0.634
RRIRKRPPRLPRPRPRPECHPRP	-0.0136
RRIRARPPRLPRPRPRPTSGPRP	0.343
RRIRVRPPRLPRPRPRPNWMPRP	-0.235
RRIRWRPPRLPRPRPRPVLPPRP	-0.0604
RRIRPRPPRLPRPRPRPDEWPRP	0.0186
RRIRRRPPRLPRPRPRPSGMPRP	-0.0586
RRIRRRPPRLPRPRPRPFPAPRP	0.731
RRIRWRPPRLPRPRPRPRIAPRP	0.133
RRIRLRPPRLPRPRPRPDKDPRP	0.0388
RRIRHRPPRLPRPRPRPRRKPRP	0.0896
RRIRSRPPRLPRPRPRPFHWPRP	-0.108
RRIRTRPPRLPRPRPRPYCKPRP	-0.129
RRIRKRPPRLPRPRPRPMPAPRP	0.15
RRIRIRPPRLPRPRPRPHDRPRP	-0.289
RRIRARPPRLPRPRPRPQMKPRP	0.433
RRIRCRPPRLPRPRPRPHNYPRP	-0.831
RRIRLRPPRLPRPRPRPVVRPRP	0.148
RRIRIRPPRLPRPRPRPTSSPRP	-0.25
RRIRNRPPRLPRPRPRPPVCPRP	0.126

Sequence	shrunken log2 fold change
RRIRHRPPRLPRPRPRPPRHPRP	0.231
RRIRNRPPRLPRPRPRPYVQPRP	-0.0341
RRIRGRPPRLPRPRPRPTYMPRP	0.0228
RRIRRRPPRLPRPRPRPESVPRP	0.075
RRIRPRPPRLPRPRPRPPFLPRP	0.188
RRIRMRPPRLPRPRPRPFSRPRP	0.0409
RRIRARPPRLPRPRPRPAQEPRP	0.582
RRIRCRPPRLPRPRPRPGCFPRP	0.0804
RRIRERPPRLPRPRPRPMTDPRP	-0.131
RRIRKRPPRLPRPRPRPTMHPRP	0.455
RRIRWRPPRLPRPRPRPAPSPRP	0.393
RRIRTRPPRLPRPRPRPQFWPRP	-0.00273
RRIRMRPPRLPRPRPRPYSMPRP	-0.245
RRIRSRPPRLPRPRPRPFRWPRP	0.119
RRIRQRPPRLPRPRPRPTDLPRP	0.0327
RRIRNRPPRLPRPRPRPKPRPRP	0.83
RRIRCRPPRLPRPRPRPASFPRP	-0.176
RRIRGRPPRLPRPRPRPDDWPRP	1.5
RRIRMRPPRLPRPRPRPWCCPRP	0.0172
RRIRDRPPRLPRPRPRPQQGPRP	-0.00207
RRIRTRPPRLPRPRPRPLASPRP	0.125
RRIRVRPPRLPRPRPRPCWAPRP	0.154
RRIRERPPRLPRPRPRPRAFPRP	0.189
RRIRTRPPRLPRPRPRPQRSPRP	0.309
RRIRMRPPRLPRPRPRPCWDPRP	0.439

Sequence	shrunken log2 fold change
RRIRVRPPRLPRPRPRPTIFPRP	-0.469
RRIRPRPPRLPRPRPRPEVWPRP	0.5
RRIRWRPPRLPRPRPRPIPHPRP	0.0496
RRIRERPPRLPRPRPRPHDKPRP	-0.784
RRIRIRPPRLPRPRPRPNNVPRP	-0.7
RRIRYRPPRLPRPRPRPEPCPRP	0.189
RRIRMRPPRLPRPRPRPEYWPRP	0.339
RRIRWRPPRLPRPRPRPVTFPRP	-0.186
RRIRTRPPRLPRPRPRPDINPRP	-0.151
RRIRGRPPRLPRPRPRPWLSPRP	-0.0504
RRIRGRPPRLPRPRPRPVKGPRP	0.276
RRIRIRPPRLPRPRPRPKCYPRP	-0.00654
RRIRQRPPRLPRPRPRPAFTPRP	-0.00944
RRIRLRPPRLPRPRPRPVLSPRP	-0.0937
RRIRHRPPRLPRPRPRPEFDPRP	0.12
RRIRQRPPRLPRPRPRPDYTPRP	-0.0424
RRIRDRPPRLPRPRPRPCFMPRP	0.0118
RRIRARPPRLPRPRPRPVYMPRP	-0.436
RRIRQRPPRLPRPRPRPHPPPRP	0.667
RRIRVRPPRLPRPRPRPGEKPRP	-0.186
RRIRRRPPRLPRPRPRPTTMPRP	0.32
RRIRMRPPRLPRPRPRPRYFPRP	0.0308
RRIRNRPPRLPRPRPRPYMTPRP	-0.509
RRIRPRPPRLPRPRPRPHATPRP	0.323
RRIRCRPPRLPRPRPRPNAWPRP	-0.247

Sequence	shrunken log2 fold change
RRIRERPPRLPRPRPRPCYLPRP	-1.07
RRIRTRPPRLPRPRPRPSKKPRP	-0.174
RRIRLRPPRLPRPRPRPIMKPRP	-0.489
RRIRFRPPRLPRPRPRPVWPPRP	0.263
RRIRTRPPRLPRPRPRPYWAPRP	-0.0649
RRIRGRPPRLPRPRPRPERYPRP	-0.107
RRIRNRPPRLPRPRPRPRYNPRP	-1.04
RRIRGRPPRLPRPRPRPECWPRP	1.92
RRIRSRPPRLPRPRPRPYNTPRP	-1.1
RRIRWRPPRLPRPRPRPSMMPRP	0.157
RRIRERPPRLPRPRPRPNLQPRP	-0.208
RRIRWRPPRLPRPRPRPIHLPRP	-0.0188
RRIRVRPPRLPRPRPRPPSAPRP	0.47
RRIRKRPPRLPRPRPRPKKYPRP	-0.149
RRIRKRPPRLPRPRPRPMNFPRP	0.18
RRIRARPPRLPRPRPRPCWDPRP	-0.102
RRIRNRPPRLPRPRPRPPCEPRP	0.0665
RRIRYRPPRLPRPRPRPEMKPRP	0.206
RRIRERPPRLPRPRPRPCHLPRP	-0.176
RRIRLRPPRLPRPRPRPPLDPRP	0.436
RRIRIRPPRLPRPRPRPFKFPRP	-0.702
RRIRHRPPRLPRPRPRPNPTPRP	-0.193
RRIRQRPPRLPRPRPRPPIQPRP	-0.164
RRIRVRPPRLPRPRPRPRHWPRP	0.293
RRIRARPPRLPRPRPRPIHQPRP	-0.0255

Sequence	shrunken log2 fold change
RRIRARPPRLPRPRPRPSSVPRP	-0.0486
RRIRKRPPRLPRPRPRPFFDPRP	0.112
RRIRHRPPRLPRPRPRPMILPRP	-0.0484
RRIRYRPPRLPRPRPRPIYTPRP	-0.943
RRIRIRPPRLPRPRPRPKYRPRP	0.0239
RRIRYRPPRLPRPRPRPFISPRP	-0.341
RRIRQRPPRLPRPRPRPWILPRP	-0.00158
RRIRCRPPRLPRPRPRPVHIPRP	-0.831
RRIRMRPPRLPRPRPRPHSPPRP	-0.114
RRIRLRPPRLPRPRPRPQKNPRP	-0.154
RRIRHRPPRLPRPRPRPWTDPRP	-0.0171
RRIRWRPPRLPRPRPRPFLTPRP	2.56
RRIRDRPPRLPRPRPRPNSPPRP	-0.0573
RRIRQRPPRLPRPRPRPMCEPRP	-0.00149
RRIRMRPPRLPRPRPRPFMGPRP	-0.0409
RRIRWRPPRLPRPRPRPVCRPRP	0.353
RRIRQRPPRLPRPRPRPACSPRP	0.125
RRIRGRPPRLPRPRPRPEHMPRP	0.396
RRIRGRPPRLPRPRPRPRGDPRP	0.481
RRIRIRPPRLPRPRPRPYDNPRP	0.0332
RRIRVRPPRLPRPRPRPNNHPRP	-0.454
RRIRERPPRLPRPRPRPLFCPRP	-0.211
RRIRTRPPRLPRPRPRPPLVPRP	0.184
RRIRQRPPRLPRPRPRPAATPRP	0.732
RRIRIRPPRLPRPRPRPYFQPRP	-0.511

Sequence	shrunken log2 fold change
RRIRARPPRLPRPRPRPAVQPRP	-0.0122
RRIRPRPPRLPRPRPRPAPGPRP	0.645
RRIRYRPPRLPRPRPRPPIIPRP	-0.148
RRIRKRPPRLPRPRPRPDYGPRP	0.111
RRIRHRPPRLPRPRPRPCLTPRP	-0.0273
RRIRRRPPRLPRPRPRPGEKPRP	0.0687
RRIRKRPPRLPRPRPRPNSLPRP	-0.00111
RRIRYRPPRLPRPRPRPIGRPRP	-0.0417
RRIRLRPPRLPRPRPRPNCRPRP	0.00739
RRIRCRPPRLPRPRPRPESPPRP	0.315
RRIRRRPPRLPRPRPRPITPPRP	0.243
RRIRCRPPRLPRPRPRPRWVPRP	2.6
RRIRDRPPRLPRPRPRPCVKPRP	-0.161
RRIRTRPPRLPRPRPRPGMRPRP	0.744
RRIRWRPPRLPRPRPRPLQGPRP	-0.21
RRIRRRPPRLPRPRPRPYITPRP	-0.523
RRIRCRPPRLPRPRPRPPVTPRP	0.0706
RRIRLRPPRLPRPRPRPRRLPRP	0.18
RRIRLRPPRLPRPRPRPSMIPRP	-1.02
RRIRLRPPRLPRPRPRPINCPRP	-0.0463
RRIRLRPPRLPRPRPRPEDGPRP	-0.0468
RRIRMRPPRLPRPRPRPTQAPRP	0.0839
RRIRARPPRLPRPRPRPCNKPRP	-0.43
RRIRCRPPRLPRPRPRPVPLPRP	0.00193
RRIRGRPPRLPRPRPRPPRVPRP	1.15
